B1: Hairpin Ribozyme (parent)
chain: GUCCUCUUUCACGUGCGCGUGAAAGAGAGAAGUGAACCAGAGAAACACACGUUGUGGUAUAUUACCUGGUA

Variants of B1 are the subject of this data set. The data set is described as follows: self-cleavage, relative activity (ratio to wild type); higher = more cleavage; co-transcriptional.
Regarding GUCCUCUUUCACGUGCGCAUGAAAGAGAGAAGUGAACCAGAGAAACACACGUUGUGGUAUAUCACCUGGUA [G19A U63C], the self-cleavage came to 0.213.

On to GUCCUCUUUCACGUGCGCAUGAAAGAGAGAAGUGAACCAGAGAAACACACGUUGUGGUAUAUAACCUGGUA [G19A U63A], for which the self-cleavage turned out to be 0.104.

As to GUCCUCUUUCACGUGCGCAUGAAAGAGAGAAGUGAACCAGAGAAACACACGUUAUGGUAUAUUACCUGGUA [G19A G54A], the self-cleavage was determined as 0.51.

With GUCCUCUUUCACGUGCGCAUGAAAGAGAGAAGUGAACCAGAGAAACACACGUUUUGGUAUAUUACCUGGUA [G19A G54U], the self-cleavage worked out at 0.535.

GUCCUCUUUCACGUGCGCCUGAAAGAGAGAAGUGAUCCAGAGAAACACACGUUGUGGUAUAUUACCUGGUA [G19C A36U]: the self-cleavage was determined as 0.603.

GUCCUCUUUCACGUGCGCCUGAAAGAGAGAAGUGAACCAGAGAAUCACACGUUGUGGUAUAUUACCUGGUA [G19C A45U]: the self-cleavage turned out to be 0.142.

Regarding GUCCUCUUUCACGUGCGCAGGAAAGAGAGAAGUGAACCAGAGAAACACACGUUGUGGUAUAUUACCUGGUA [G19A U20G], the self-cleavage is 0.786.

GUCCUCUUUCACGUGCGCAUGAAAGAGAGAAGUGAACCAGAGAAACACACGUUGUGGUAUAUUACCUGGAA [G19A U70A]: the self-cleavage came to 0.599.

As for GUCCUCUUUCACGUGCGCAUGAAAGAGAGAAGUGAACCAGAAAAACACACGUUGUGGUAUAUUACCUGGUA [G19A G42A], the self-cleavage is 0.202.

Consider GUCCUCUUUCACGUGCGCCUGAAAGAGUGAAGUGAACCAGAGAAACACACGUUGUGGUAUAUUACCUGGUA [G19C A28U], for which the self-cleavage came out at 0.63.

In the case of GUCCUCUUUCACGUGCGCAUGAAAGAGAGAAGUGAACCAGAGAAACACACGUUGUGUUAUAUUACCUGGUA [G19A G57U], the self-cleavage came to 0.289.

On to GUCCUCUUUCACGUGCGCCUGAAAGAGAGAAGUGGACCAGAGAAACACACGUUGUGGUAUAUUACCUGGUA [G19C A35G], for which the self-cleavage worked out at 0.74.

For the variant GUCCUCUUUCACGUGCGCCUGAUAGAGAGAAGUGAACCAGAGAAACACACGUUGUGGUAUAUUACCUGGUA [G19C A23U], the self-cleavage was 0.656.

Regarding GUCCUCUUUCACGUGCGCCUGAAAGAGAGAAGUGAACCAGGGAAACACACGUUGUGGUAUAUUACCUGGUA [G19C A41G], the self-cleavage was 0.743.

For the variant GUCCUCUUUCACGUGCGCAUGAAAGAGAGAAGUGAACCAGAGAAACACACGUUGUGGCAUAUUACCUGGUA [G19A U58C], the self-cleavage is 0.856.

For GUCCUCUUUCACGUGCGCAUGAAAGAGAGAAGUGAACCAGAGAAACACACGUUGUGGUAUAAUACCUGGUA [G19A U62A], the self-cleavage stood at 0.0978.

Take GUCCUCUUUCACGUGCGCCUGAAAGAGAGAAGUGAACCAGAGGAACACACGUUGUGGUAUAUUACCUGGUA [G19C A43G]: the self-cleavage is 0.219.

For the variant GUCCUCUUUCACGUGCGCCUGAAAGAGAGAAGUGAACCAGAGAAACACACGUUGUGGUAUAUUCCCUGGUA [G19C A64C], the self-cleavage worked out at 0.182.

Take GUCCUCUUUCACGUGCGCCUGAAAGAGAGAAGUGAACCAGAGAAACACACGUUGUGGUAUAUUUCCUGGUA [G19C A64U]: the self-cleavage amounted to 0.135.

For the variant GUCCUCUUUCACGUGCGCCUGAAAGAGAGAAGUGAAACAGAGAAACACACGUUGUGGUAUAUUACCUGGUA [G19C C37A], the self-cleavage stood at 0.32.

As to GUCCUCUUUCACGUGCGCAUGAAAGAGAGAAGUGAACCAGAGAAACACACGUUGUAGUAUAUUACCUGGUA [G19A G56A], the self-cleavage was 0.124.

Consider GUCCUCUUUCACGUGCGCAUGAAAGAGAGAAGUGAACCAGAGAAACACACGUUGUCGUAUAUUACCUGGUA [G19A G56C], for which the self-cleavage stood at 0.136.

As to GUCCUCUUUCACGUGCGCAUGAAAGAGAGAAGUGAACCAGAGAAACACACGUUGUGGUAUAUUACCGGGUA [G19A U67G], the self-cleavage was 0.199.

As to GUCCUCUUUCACGUGCGCCUGAAAGAGAGAAGUGAACCAGAGAAACACACGUUGUGGUAUCUUACCUGGUA [G19C A61C], the self-cleavage came to 0.333.

Take GUCCUCUUUCACGUGCGCCUGAAAGAGAGAAGUGAACCAGAGAAACACACGUUGUGGUAUAUUACCUGGUC [G19C A71C]: the self-cleavage was found to be 1.24.

Take GUCCUCUUUCACGUGCGCCUGAAAGAGAGAAGUGAACCAGAGACACACACGUUGUGGUAUAUUACCUGGUA [G19C A44C]: the self-cleavage is 0.152.

With GUCCUCUUUCACGUGCGCCUGAAAGAGAGAAGUGAACCAGAGAAACACUCGUUGUGGUAUAUUACCUGGUA [G19C A49U], the self-cleavage was determined as 0.207.

In the case of GUCCUCUUUCACGUGCGCCUGAAAGAGAGAAGUGAACCUGAGAAACACACGUUGUGGUAUAUUACCUGGUA [G19C A39U], the self-cleavage is 0.441.

Turning to GUCCUCUUUCACGUGCGCCUGAAAGAGAGAAGUGAACCCGAGAAACACACGUUGUGGUAUAUUACCUGGUA [G19C A39C], the self-cleavage came out at 0.44.

GUCCUCUUUCACGUGCGCCUGCAAGAGAGAAGUGAACCAGAGAAACACACGUUGUGGUAUAUUACCUGGUA [G19C A22C]: the self-cleavage worked out at 0.702.

For GUCCUCUUUCACGUGCGCCUGGAAGAGAGAAGUGAACCAGAGAAACACACGUUGUGGUAUAUUACCUGGUA [G19C A22G], the self-cleavage was 0.866.

In the case of GUCCUCUUUCACGUGCGCCUGAAAGCGAGAAGUGAACCAGAGAAACACACGUUGUGGUAUAUUACCUGGUA [G19C A26C], the self-cleavage stood at 0.272.

Regarding GUCCUCUUUCACGUGCGCAUGAAAGAGAGAAGAGAACCAGAGAAACACACGUUGUGGUAUAUUACCUGGUA [G19A U33A], the self-cleavage came out at 0.0829.

In the case of GUCCUCUUUCACGUGCGCAUGAAAGAGAGAAGUGAACCAGAGAAACACACAUUGUGGUAUAUUACCUGGUA [G19A G51A], the self-cleavage came out at 1.07.

In the case of GUCCUCUUUCACGUGCGCCUGAAAGAGAGCAGUGAACCAGAGAAACACACGUUGUGGUAUAUUACCUGGUA [G19C A30C], the self-cleavage came to 0.221.

Regarding GUCCUCUUUCACGUGCGCAUGAAAGAGAGAAGUGAACCAGAGAAACACACGAUGUGGUAUAUUACCUGGUA [G19A U52A], the self-cleavage is 0.809.

As to GUCCUCUUUCACGUGCGCCUGAAAGAGAGAAGUGAACCAGAGAAACCCACGUUGUGGUAUAUUACCUGGUA [G19C A47C], the self-cleavage is 0.207.

As for GUCCUCUUUCACGUGCGCCUGAAAGAGAGAAGUGAACCAGAGAAACUCACGUUGUGGUAUAUUACCUGGUA [G19C A47U], the self-cleavage was found to be 0.152.

The values above are taken from the RNAGym collection of RNA variant scans (doi:10.7554/elife.80360).
